{"source": "paper PMC7395175", "parents": {"B1": {"name": "HA-tagged zDHHC5 [murine] / human PLM expressed in HEK-derived FT-293 cells [human] (parent)", "chain 1": "MPAESGKRFKPSKYVPVSAAAIFLVGATTLFFAFTCPGLSLNVSPAVPIYNAIMFLFVLANFSMATFMDPGIFPRAEEDEDKEDDFRAPLYKTVEIKGIQVRMKWCATCRFYRPPRCSHCSVCDNCVEEFDHHCPWVNNCIGRRNYRYFFLFLLSLTAHIMGVFGFGLLYVLYHIEELSGVRTAVTMAVMCVAGLFFIPVAGLTGFHVVLVARGRTTNEQVTGKFRGGVNPFTNGCCNNVSRVLCSSPAPRYLGRPKKEKTIVIRPPFLRPEVSDGQITVKIMDNGIQGELRRTKSKGSLEITESQSADAEPPPPPKPDLSRYTGLRTHLSLATNEDSSLLGKDSPPTPTMYKYRPGYSSSSTSAAMPHSSSAKLSRGDSLKEPTSIADSSRHPSYRSEPSLEPESFRSPTFGKSFHFDPLSSGSRSSSLKSAQGTGFELGQLQSIRSEGTTSTSYKSLANQTRNGSLSYDSLLTPSDSPDFESVQAGPEPDPPLGYTSPFLSARLAQQREAERHPRLLPTGPPHREPSPVRYDNLSRHIVASLQEREKLLRQSPPLAGREEEPGLGDSGIQSTPGSGHAPRTSSSSDDSKRSPLSKTPLGRPAVPRFGKPDGLRSRGLGSPEPGTTAPYLGRSISYSSQKAPSGVSETEEVALQPLLTPKDEVQLKTTYSKSNGQPKSIGSASPGPGQPPLSSPTRGGVKKVSGVGGTTYEISV", "chain 2": "ESPKEHDPFTYDYQSLQIGGLVIAGILFILGILIVLSRRCRCKFNQQQRTGEPDEEEGTFRSSIRRLSTRRR"}}}
{"variants_of": "B1", "test": "co-immunoprecipitation (HA IP, Western blot quantified)", "settings": "with human PLM expressed in HEK-derived FT-293 cells [human]; n = 3; read off a plot", "units": {"response": "PLM/HA"}}
{"variant": "chain 1 C236A C237A", "response": 0.79}
